Experimental data taken from the supplement of paper PMC10065799, “High-throughput profiling of sequence recognition by tyrosine kinases and SH2 domains using bacterial peptide display” (eLife, 2023).

Key:
SHP2-C SH2 = test: SH2 binding enrichment of the phosphorylated peptide, bacterial display (enrichment ratio); higher = better substrate or ligand; peptides without Tyr show the background
Grb2 SH2 = Grb2 SH2 (UniProt P62993); test: as above
c-Src SH2 = test: as above
EPHB1 = EPHB1 (UniProt P54762); test: phosphorylation enrichment, bacterial display (enrichment ratio); higher = better substrate or ligand; peptides without Tyr show the background
Sequence of EPHB1 (P54762 whole entry, looked up): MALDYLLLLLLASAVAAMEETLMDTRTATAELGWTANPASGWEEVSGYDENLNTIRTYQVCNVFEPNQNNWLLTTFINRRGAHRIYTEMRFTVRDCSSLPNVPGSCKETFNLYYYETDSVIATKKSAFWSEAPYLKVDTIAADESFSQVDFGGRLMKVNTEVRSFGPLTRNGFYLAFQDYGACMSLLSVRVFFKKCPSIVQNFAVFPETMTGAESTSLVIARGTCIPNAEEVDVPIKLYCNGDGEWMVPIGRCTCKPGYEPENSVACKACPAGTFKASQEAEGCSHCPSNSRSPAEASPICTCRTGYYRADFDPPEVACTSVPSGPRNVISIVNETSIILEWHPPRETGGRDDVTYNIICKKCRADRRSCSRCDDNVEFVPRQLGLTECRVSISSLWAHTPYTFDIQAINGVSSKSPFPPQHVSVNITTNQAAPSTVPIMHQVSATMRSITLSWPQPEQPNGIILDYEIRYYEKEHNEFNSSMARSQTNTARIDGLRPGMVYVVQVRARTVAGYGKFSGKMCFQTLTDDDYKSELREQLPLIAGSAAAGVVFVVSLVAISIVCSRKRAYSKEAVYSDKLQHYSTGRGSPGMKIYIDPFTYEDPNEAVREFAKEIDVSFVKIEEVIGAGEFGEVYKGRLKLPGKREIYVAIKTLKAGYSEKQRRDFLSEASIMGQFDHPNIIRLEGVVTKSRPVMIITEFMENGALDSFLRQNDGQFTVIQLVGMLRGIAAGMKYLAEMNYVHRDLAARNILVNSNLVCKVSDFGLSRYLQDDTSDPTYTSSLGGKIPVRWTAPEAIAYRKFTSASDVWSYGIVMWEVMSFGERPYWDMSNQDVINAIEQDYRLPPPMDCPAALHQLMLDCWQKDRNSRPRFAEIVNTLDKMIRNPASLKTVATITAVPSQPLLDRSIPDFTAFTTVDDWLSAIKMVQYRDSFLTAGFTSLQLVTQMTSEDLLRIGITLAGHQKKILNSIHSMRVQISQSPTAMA

c-Src = test: as above
EPHB2 = EPHB2 (UniProt P29323); test: as above
Sequence of EPHB2 (P29323 whole entry, looked up): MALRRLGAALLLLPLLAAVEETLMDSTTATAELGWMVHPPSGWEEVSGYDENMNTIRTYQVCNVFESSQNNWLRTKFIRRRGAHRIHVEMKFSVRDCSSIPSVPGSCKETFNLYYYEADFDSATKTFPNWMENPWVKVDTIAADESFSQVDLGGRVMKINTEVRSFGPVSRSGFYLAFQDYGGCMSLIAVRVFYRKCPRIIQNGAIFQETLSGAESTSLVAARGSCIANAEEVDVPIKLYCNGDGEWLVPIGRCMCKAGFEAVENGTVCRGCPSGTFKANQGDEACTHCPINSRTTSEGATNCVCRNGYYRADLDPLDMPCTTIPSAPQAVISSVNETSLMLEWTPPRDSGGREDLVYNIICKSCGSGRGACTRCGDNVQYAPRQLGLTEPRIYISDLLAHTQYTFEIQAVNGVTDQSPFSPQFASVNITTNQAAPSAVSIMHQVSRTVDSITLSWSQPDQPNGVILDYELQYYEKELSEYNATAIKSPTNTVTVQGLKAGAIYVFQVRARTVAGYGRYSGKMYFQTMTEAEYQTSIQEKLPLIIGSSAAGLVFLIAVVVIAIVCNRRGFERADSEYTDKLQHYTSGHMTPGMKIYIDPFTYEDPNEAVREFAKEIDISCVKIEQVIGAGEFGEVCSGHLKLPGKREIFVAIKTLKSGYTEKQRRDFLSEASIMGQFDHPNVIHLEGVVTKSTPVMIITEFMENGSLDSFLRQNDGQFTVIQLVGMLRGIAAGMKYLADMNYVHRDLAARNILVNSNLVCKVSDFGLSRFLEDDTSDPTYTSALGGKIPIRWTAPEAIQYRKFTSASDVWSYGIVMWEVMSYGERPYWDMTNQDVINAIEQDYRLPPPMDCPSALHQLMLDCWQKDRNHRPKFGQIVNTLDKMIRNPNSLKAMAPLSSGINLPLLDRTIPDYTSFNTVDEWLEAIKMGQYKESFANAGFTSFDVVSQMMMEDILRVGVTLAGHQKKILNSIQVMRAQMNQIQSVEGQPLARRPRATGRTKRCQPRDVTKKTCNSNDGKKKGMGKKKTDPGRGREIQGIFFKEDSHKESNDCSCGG

Jak2 = Jak2 (UniProt O60674); test: as above
AncSZ = test: as above
FGFR1 = FGFR1 (UniProt P11362); test: as above
FGFR3 = FGFR3 (UniProt P22607); test: as above
Sequence of FGFR3 (P22607 whole entry, looked up): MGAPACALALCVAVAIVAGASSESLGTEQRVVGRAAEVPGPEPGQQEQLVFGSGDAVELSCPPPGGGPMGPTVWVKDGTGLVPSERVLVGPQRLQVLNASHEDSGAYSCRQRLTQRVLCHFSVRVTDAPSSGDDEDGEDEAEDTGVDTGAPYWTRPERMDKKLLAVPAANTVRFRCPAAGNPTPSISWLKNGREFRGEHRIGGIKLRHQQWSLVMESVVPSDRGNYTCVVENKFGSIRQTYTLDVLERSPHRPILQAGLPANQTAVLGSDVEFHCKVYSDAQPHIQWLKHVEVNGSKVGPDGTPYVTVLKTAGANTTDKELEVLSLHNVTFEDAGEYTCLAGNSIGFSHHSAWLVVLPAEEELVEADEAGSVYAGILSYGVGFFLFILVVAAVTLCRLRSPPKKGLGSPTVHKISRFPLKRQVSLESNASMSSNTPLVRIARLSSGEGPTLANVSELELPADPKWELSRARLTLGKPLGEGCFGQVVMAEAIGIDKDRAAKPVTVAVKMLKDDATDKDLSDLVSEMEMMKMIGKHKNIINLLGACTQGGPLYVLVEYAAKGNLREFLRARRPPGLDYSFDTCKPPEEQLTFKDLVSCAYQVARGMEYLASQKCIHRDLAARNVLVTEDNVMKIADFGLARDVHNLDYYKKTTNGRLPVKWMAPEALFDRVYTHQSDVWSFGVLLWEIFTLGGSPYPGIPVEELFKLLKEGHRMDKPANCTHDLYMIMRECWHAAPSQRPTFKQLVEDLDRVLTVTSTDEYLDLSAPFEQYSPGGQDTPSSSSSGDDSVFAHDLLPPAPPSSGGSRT

Fyn = Fyn (UniProt P06241); test: as above
Sequence of Fyn (P06241 whole entry, looked up): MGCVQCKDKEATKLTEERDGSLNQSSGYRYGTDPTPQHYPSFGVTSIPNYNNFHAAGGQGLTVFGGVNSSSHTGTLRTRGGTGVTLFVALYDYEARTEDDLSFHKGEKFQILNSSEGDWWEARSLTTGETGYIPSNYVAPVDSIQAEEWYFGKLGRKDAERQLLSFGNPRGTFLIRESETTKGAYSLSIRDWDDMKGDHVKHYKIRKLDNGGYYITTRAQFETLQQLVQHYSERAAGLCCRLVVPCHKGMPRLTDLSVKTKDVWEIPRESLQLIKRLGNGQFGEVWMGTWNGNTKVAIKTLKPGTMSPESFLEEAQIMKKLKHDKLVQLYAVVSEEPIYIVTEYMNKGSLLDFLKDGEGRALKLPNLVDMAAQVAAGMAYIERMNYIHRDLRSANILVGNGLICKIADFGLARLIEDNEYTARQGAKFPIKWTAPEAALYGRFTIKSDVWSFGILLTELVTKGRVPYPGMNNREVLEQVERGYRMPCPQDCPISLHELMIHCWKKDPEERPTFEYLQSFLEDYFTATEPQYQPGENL

Fer (mouse) = test: as above
Hck = Hck (UniProt P08631); test: as above
Sequence of Hck (P08631 whole entry, looked up): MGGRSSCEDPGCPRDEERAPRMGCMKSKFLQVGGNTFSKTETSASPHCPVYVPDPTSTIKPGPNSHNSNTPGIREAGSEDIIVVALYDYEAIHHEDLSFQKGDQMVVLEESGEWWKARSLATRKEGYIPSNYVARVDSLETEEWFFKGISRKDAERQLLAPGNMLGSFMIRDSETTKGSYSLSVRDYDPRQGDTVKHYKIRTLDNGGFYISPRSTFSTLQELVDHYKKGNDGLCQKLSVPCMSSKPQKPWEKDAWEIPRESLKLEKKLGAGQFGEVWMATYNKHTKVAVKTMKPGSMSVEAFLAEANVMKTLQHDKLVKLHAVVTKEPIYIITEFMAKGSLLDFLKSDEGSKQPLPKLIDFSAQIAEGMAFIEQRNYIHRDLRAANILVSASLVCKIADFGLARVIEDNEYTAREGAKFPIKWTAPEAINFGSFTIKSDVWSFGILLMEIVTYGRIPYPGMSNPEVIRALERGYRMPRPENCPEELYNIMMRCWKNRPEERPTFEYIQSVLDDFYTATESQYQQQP

c-Abl (mouse) = test: as above
Fes = Fes (UniProt P07332); test: as above
MERTK = MERTK (UniProt Q12866); test: as above
Sequence of MERTK (Q12866 whole entry, looked up, the tested form may be a part): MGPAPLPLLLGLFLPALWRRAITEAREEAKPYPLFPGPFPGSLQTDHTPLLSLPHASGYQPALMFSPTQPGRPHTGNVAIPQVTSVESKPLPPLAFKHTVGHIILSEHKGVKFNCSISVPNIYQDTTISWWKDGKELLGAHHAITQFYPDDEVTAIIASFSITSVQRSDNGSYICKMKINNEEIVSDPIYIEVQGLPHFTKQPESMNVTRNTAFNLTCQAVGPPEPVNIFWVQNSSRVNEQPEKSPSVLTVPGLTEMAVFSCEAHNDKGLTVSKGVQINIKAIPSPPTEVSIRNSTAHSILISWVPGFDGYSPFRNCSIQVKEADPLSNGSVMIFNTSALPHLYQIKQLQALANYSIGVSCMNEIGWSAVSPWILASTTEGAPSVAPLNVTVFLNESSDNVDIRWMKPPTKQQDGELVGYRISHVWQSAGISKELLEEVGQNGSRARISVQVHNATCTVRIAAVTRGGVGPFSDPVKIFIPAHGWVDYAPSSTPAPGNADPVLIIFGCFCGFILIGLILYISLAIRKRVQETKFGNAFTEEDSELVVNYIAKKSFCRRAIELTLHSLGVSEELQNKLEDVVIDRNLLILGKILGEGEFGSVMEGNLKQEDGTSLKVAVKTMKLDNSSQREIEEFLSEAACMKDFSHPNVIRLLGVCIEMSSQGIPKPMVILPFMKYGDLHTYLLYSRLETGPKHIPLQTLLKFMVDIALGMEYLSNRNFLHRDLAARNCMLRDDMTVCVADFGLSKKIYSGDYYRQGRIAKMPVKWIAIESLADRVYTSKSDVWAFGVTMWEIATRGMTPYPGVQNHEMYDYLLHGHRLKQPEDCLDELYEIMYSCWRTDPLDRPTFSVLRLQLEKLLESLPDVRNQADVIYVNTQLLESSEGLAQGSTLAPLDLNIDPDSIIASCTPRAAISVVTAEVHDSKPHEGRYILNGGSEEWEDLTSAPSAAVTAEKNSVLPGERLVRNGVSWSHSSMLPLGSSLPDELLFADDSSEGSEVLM
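Throughout, for SH2 binding enrichment of the phosphorylated peptide, bacterial display: peptide library displayed on the E. coli surface as eCPX fusions, selected cells deep-sequenced, score is each peptide's frequency after selection divided by its frequency in the input.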
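Throughout, for phosphorylation enrichment, bacterial display: 11-residue human phosphosite peptides and single-mutation variants displayed on the E. coli surface, counted by deep sequencing, each peptide's frequency after selection divided by its frequency in the unselected input library; frequency after pTyr selection over input frequency; kinase dosed for 20-30% of maximal phosphorylation in three min.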

Sequence	SH2 binding enrichment (SHP2-C SH2)	SH2 binding enrichment (Grb2 SH2)	SH2 binding enrichment (c-Src SH2)	phosphorylation enrichment (EPHB1)	phosphorylation enrichment (c-Src)	phosphorylation enrichment (EPHB2)	phosphorylation enrichment (Jak2)	phosphorylation enrichment (AncSZ)	phosphorylation enrichment (FGFR1)	phosphorylation enrichment (FGFR3)	phosphorylation enrichment (Fyn)	phosphorylation enrichment (Fer (mouse))	phosphorylation enrichment (Hck)	phosphorylation enrichment (c-Abl (mouse))	phosphorylation enrichment (Fes)	phosphorylation enrichment (MERTK)
GKTQQYDCKWY [BCR_Y751]	0.601	0.805	0.758	0.554	0.55	0.532	1.05	0.864	0.464	0.598	0.441	0.432	0.554	0.769	1.05	0.515
GKVFIYHGSSL [ITGA7_Y458]	0.707	0.996	0.598	0.655	0.369	0.614	1.02	1.19	0.596	0.761	0.42	0.546	0.571	0.672	1.3	0.364
GLCSYYETSKM [MAGED2_Y449_R446C]	0.72	0.818	1.2	1.67	1.81	1.11	1.3	1.39	6.32	4.99	0.68	1.01	0.926	0.955	1.18	1.25
GLDGRYLLRDS [SH2D1A_Y29_S28R]	0.7	0.817	0.515	0.423	0.436	0.448	0.51	0.651	0.531	0.488	0.372	0.637	0.395	0.441	0.734	0.41
GLNKDYRMVVN [HINT1_Y94_G93D]	0.635	0.734	0.451	0.426	0.415	0.44	0.566	0.652	0.51	0.504	0.455	0.448	0.437	0.447	0.605	0.424
GLRCGYGVLGG [KRTAP20-2_Y15_Y13C]	0.572	0.806	0.52	0.484	0.73	0.387	0.825	0.775	0.381	0.612	0.466	0.484	0.432	0.617	0.854	0.359
GMAHNYRNRSQ [AASS_Y188_S191R]	0.392	0.703	0.48	0.414	0.481	0.388	0.488	0.599	0.344	0.401	0.487	0.358	0.523	0.57	0.629	0.466
GMIQAYSSSQR [DES_Y5_S2I]	0.712	0.872	0.759	0.401	0.37	0.334	0.442	0.485	0.384	0.389	0.346	0.319	0.412	0.42	0.509	0.357
GMTLSYLFWEP [NDUFS8_Y74_R77W]	0.916	0.984	0.737	0.875	0.659	0.737	5.21	1.85	4.73	3.63	0.501	3.7	0.629	1.32	1.59	1.43

Second part, led by results:

SH2 binding enrichment (SHP2-C SH2)	SH2 binding enrichment (Grb2 SH2)	SH2 binding enrichment (c-Src SH2)	Sequence	phosphorylation enrichment (EPHB1)	phosphorylation enrichment (c-Src)	phosphorylation enrichment (EPHB2)	phosphorylation enrichment (Jak2)	phosphorylation enrichment (AncSZ)	phosphorylation enrichment (FGFR1)	phosphorylation enrichment (FGFR3)	phosphorylation enrichment (Fyn)	phosphorylation enrichment (Fer (mouse))	phosphorylation enrichment (Hck)	phosphorylation enrichment (c-Abl (mouse))	phosphorylation enrichment (Fes)	phosphorylation enrichment (MERTK)
0.741	1.23	0.646	GMKIVYVYVKK [DNAI2_Y5_E2K]	0.567	0.473	0.594	0.899	1.11	0.479	0.587	0.466	0.605	0.459	0.801	1.12	0.418
0.595	0.833	5.84	GNYSGYDDAWD [POLR1C_Y36]	6.73	0.586	5.87	1.29	1.62	0.723	0.931	0.597	0.742	0.578	0.964	1.32	0.637
0.52	0.715	0.403	GPKSTYISSAA [GOLGA5_Y62]	0.331	0.508	0.506	0.638	0.731	0.414	0.51	0.467	0.403	0.492	0.488	0.7	0.565
0.659	0.873	0.791	GQAPGYSYTAA [CYCS_Y47]	0.483	0.416	0.5	0.615	0.601	0.43	0.481	0.471	0.433	0.502	0.56	0.665	0.438
0.636	0.711	0.588	GQDLFYEDEDL [PACS1_Y303]	0.922	0.598	0.628	1.43	1.28	0.626	1.24	0.688	1.79	0.737	0.839	1.39	0.746
